Laboratory results: US5821118

Experiments:
[1] = target: bovine brain farnesyl-protein transferase (bovine) (UniProt P29702)
[2] = target: human farnesyl-protein transferase, recombinant, expressed in E. coli from pRD516 with a C-terminal Glu-Glu-Phe epitope tag on the β subunit (human)

| IC50 value (nM), inhibition of farnesylation of Ras protein [1] [nM] | IC50 value (nM), inhibition of farnesylation of Ras protein [2] [nM] | Substance |
| --- | --- | --- |
| 10 | 17 | tetrapeptide CIFM (cysteinylisolleucinyl-phenylalaninyl-methionine) |
| 20000 | 6200 | tetrapeptide CVIL (cysteinylvalinyl-isolleucinyl-leucine) |
| 100 | 100 | tetrapeptide CVIM (cysteinylvalinyl-isolleucinyl-methionine) |
